T1: FcγRIIb (human, UniProt P31994 43-217)
T1 construct: extracellular domain; also called 2b
T1 sequence: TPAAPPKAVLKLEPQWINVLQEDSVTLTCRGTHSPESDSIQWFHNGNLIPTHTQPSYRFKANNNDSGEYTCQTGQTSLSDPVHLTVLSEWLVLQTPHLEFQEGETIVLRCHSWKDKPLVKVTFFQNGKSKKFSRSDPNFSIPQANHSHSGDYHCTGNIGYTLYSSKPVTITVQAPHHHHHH

T2: FcγRIIa(R) (human, UniProt P12318 34-217)
T2 construct: extracellular domain; also called 2aR
T2 sequence: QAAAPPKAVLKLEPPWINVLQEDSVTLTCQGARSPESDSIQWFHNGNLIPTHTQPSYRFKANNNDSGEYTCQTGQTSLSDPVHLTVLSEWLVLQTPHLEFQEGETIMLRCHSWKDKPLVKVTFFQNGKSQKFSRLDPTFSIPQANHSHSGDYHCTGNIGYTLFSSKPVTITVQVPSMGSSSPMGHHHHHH

T3: FcγRIIa(H) (human, UniProt P12318 34-217)
T3 construct: extracellular domain; also called 2aH
T3 sequence: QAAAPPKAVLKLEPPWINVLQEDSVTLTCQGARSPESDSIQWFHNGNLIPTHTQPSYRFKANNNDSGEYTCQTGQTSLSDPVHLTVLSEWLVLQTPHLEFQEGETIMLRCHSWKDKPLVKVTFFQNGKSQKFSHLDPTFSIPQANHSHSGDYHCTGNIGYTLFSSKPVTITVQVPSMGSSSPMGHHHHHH


Experiments:
Assay in all cases: SPR, relative to GpH7-A5/GpH7-B3/GpL16-k0 =100
[1] = target: T1, FcγRIIb
[2] = target: T2, FcγRIIa(R)
[3] = target: T3, FcγRIIa(H)
[4] = target: T4, FcγRIa (human, UniProt P12314 16-292)
T4 construct: extracellular domain; also called 1a
T4 sequence (P12314 other isoform, or with tags, fused parts or gaps): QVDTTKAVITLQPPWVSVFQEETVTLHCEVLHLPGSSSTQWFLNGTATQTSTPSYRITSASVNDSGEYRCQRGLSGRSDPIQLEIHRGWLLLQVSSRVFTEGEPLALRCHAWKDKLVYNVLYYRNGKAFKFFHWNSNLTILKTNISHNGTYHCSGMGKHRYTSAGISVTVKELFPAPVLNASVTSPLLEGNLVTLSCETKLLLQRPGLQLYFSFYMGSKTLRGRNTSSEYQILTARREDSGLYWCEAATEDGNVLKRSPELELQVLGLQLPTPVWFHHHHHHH

Binder	He/Con 2b [1]	He/Con 2aR [2]	He/Con 2aH [3]	He/Con 1a [4]
GpH7-A5/GpH7-B3 variant Y296_11K/GpL16-k0 (antibody, human IgG1, kappa, He Ab: heterodimerized IgG1, one H chain mutated) heavy 1: not shown heavy 2: not shown light: DIVMTQSPLSLPVTPGEPASISCQASESLVHSNRNTYLHWYLQKPGQSPQLLIYKVSNRFSGVPDRFSGSGSGTDFTLKISRVEAEDVGVYYCSQNTHVPPTFGQGTKVEIERTVAAPSVFIFPPSDEQLKSGTASVVCLLNNFYPREAKVQWKVDNALQSGNSQESVTEQDSKDSTYSLSSTLTLSKADYEKHKVYACEVTHQGLSSPVTKSFNRGEC	73.8%	90.3%	83.7%	102%
GpH7-A5/GpH7-B3 variant Y296_20W/GpL16-k0 (antibody, human IgG1, kappa, He Ab: heterodimerized IgG1, one H chain mutated) heavy 1: not shown heavy 2: not shown light: DIVMTQSPLSLPVTPGEPASISCQASESLVHSNRNTYLHWYLQKPGQSPQLLIYKVSNRFSGVPDRFSGSGSGTDFTLKISRVEAEDVGVYYCSQNTHVPPTFGQGTKVEIERTVAAPSVFIFPPSDEQLKSGTASVVCLLNNFYPREAKVQWKVDNALQSGNSQESVTEQDSKDSTYSLSSTLTLSKADYEKHKVYACEVTHQGLSSPVTKSFNRGEC	105%	105%	95.4%	107%
GpH7-A5/GpH7-B3 variant Y296_13S/GpL16-k0 (antibody, human IgG1, kappa, He Ab: heterodimerized IgG1, one H chain mutated) heavy 1: not shown heavy 2: not shown light: DIVMTQSPLSLPVTPGEPASISCQASESLVHSNRNTYLHWYLQKPGQSPQLLIYKVSNRFSGVPDRFSGSGSGTDFTLKISRVEAEDVGVYYCSQNTHVPPTFGQGTKVEIERTVAAPSVFIFPPSDEQLKSGTASVVCLLNNFYPREAKVQWKVDNALQSGNSQESVTEQDSKDSTYSLSSTLTLSKADYEKHKVYACEVTHQGLSSPVTKSFNRGEC	87.5%	97.5%	96.1%	102%
GpH7-A5/GpH7-B3 variant Y296_18N/GpL16-k0 (antibody, human IgG1, kappa, He Ab: heterodimerized IgG1, one H chain mutated) heavy 1: not shown heavy 2: not shown light: DIVMTQSPLSLPVTPGEPASISCQASESLVHSNRNTYLHWYLQKPGQSPQLLIYKVSNRFSGVPDRFSGSGSGTDFTLKISRVEAEDVGVYYCSQNTHVPPTFGQGTKVEIERTVAAPSVFIFPPSDEQLKSGTASVVCLLNNFYPREAKVQWKVDNALQSGNSQESVTEQDSKDSTYSLSSTLTLSKADYEKHKVYACEVTHQGLSSPVTKSFNRGEC	92.8%	99.6%	101%	102%
GpH7-A5/GpH7-B3 variant Y296_19Q/GpL16-k0 (antibody, human IgG1, kappa, He Ab: heterodimerized IgG1, one H chain mutated) heavy 1: not shown heavy 2: not shown light: DIVMTQSPLSLPVTPGEPASISCQASESLVHSNRNTYLHWYLQKPGQSPQLLIYKVSNRFSGVPDRFSGSGSGTDFTLKISRVEAEDVGVYYCSQNTHVPPTFGQGTKVEIERTVAAPSVFIFPPSDEQLKSGTASVVCLLNNFYPREAKVQWKVDNALQSGNSQESVTEQDSKDSTYSLSSTLTLSKADYEKHKVYACEVTHQGLSSPVTKSFNRGEC	90.5%	97.9%	94.3%	108%
GpH7-A5/GpH7-B3 variant Y300_01G/GpL16-k0 (antibody, human IgG1, kappa, He Ab: heterodimerized IgG1, one H chain mutated) heavy 1: not shown heavy 2: not shown light: DIVMTQSPLSLPVTPGEPASISCQASESLVHSNRNTYLHWYLQKPGQSPQLLIYKVSNRFSGVPDRFSGSGSGTDFTLKISRVEAEDVGVYYCSQNTHVPPTFGQGTKVEIERTVAAPSVFIFPPSDEQLKSGTASVVCLLNNFYPREAKVQWKVDNALQSGNSQESVTEQDSKDSTYSLSSTLTLSKADYEKHKVYACEVTHQGLSSPVTKSFNRGEC	63.2%	66.6%	82.6%	110%
GpH7-A5/GpH7-B3 variant Y296_12R/GpL16-k0 (antibody, human IgG1, kappa, He Ab: heterodimerized IgG1, one H chain mutated) heavy 1: not shown heavy 2: not shown light: DIVMTQSPLSLPVTPGEPASISCQASESLVHSNRNTYLHWYLQKPGQSPQLLIYKVSNRFSGVPDRFSGSGSGTDFTLKISRVEAEDVGVYYCSQNTHVPPTFGQGTKVEIERTVAAPSVFIFPPSDEQLKSGTASVVCLLNNFYPREAKVQWKVDNALQSGNSQESVTEQDSKDSTYSLSSTLTLSKADYEKHKVYACEVTHQGLSSPVTKSFNRGEC	80.5%	95.3%	89.1%	103%
GpH7-A5/GpH7-B3 variant Y296_16H/GpL16-k0 (antibody, human IgG1, kappa, He Ab: heterodimerized IgG1, one H chain mutated) heavy 1: not shown heavy 2: not shown light: DIVMTQSPLSLPVTPGEPASISCQASESLVHSNRNTYLHWYLQKPGQSPQLLIYKVSNRFSGVPDRFSGSGSGTDFTLKISRVEAEDVGVYYCSQNTHVPPTFGQGTKVEIERTVAAPSVFIFPPSDEQLKSGTASVVCLLNNFYPREAKVQWKVDNALQSGNSQESVTEQDSKDSTYSLSSTLTLSKADYEKHKVYACEVTHQGLSSPVTKSFNRGEC	93.5%	100%	101%	103%
GpH7-A5/GpH7-B3 variant Y296_14T/GpL16-k0 (antibody, human IgG1, kappa, He Ab: heterodimerized IgG1, one H chain mutated) heavy 1: not shown heavy 2: not shown light: DIVMTQSPLSLPVTPGEPASISCQASESLVHSNRNTYLHWYLQKPGQSPQLLIYKVSNRFSGVPDRFSGSGSGTDFTLKISRVEAEDVGVYYCSQNTHVPPTFGQGTKVEIERTVAAPSVFIFPPSDEQLKSGTASVVCLLNNFYPREAKVQWKVDNALQSGNSQESVTEQDSKDSTYSLSSTLTLSKADYEKHKVYACEVTHQGLSSPVTKSFNRGEC	89.4%	98.6%	97.2%	102%

Further lines, results first:

He/Con 2b [1]	He/Con 2aR [2]	He/Con 2aH [3]	He/Con 1a [4]	Binder
106%	103%	103%	102%	GpH7-A5/GpH7-B3 variant Y300_04F/GpL16-k0 (antibody, human IgG1, kappa, He Ab: heterodimerized IgG1, one H chain mutated) heavy 1: not shown heavy 2: not shown light: DIVMTQSPLSLPVTPGEPASISCQASESLVHSNRNTYLHWYLQKPGQSPQLLIYKVSNRFSGVPDRFSGSGSGTDFTLKISRVEAEDVGVYYCSQNTHVPPTFGQGTKVEIERTVAAPSVFIFPPSDEQLKSGTASVVCLLNNFYPREAKVQWKVDNALQSGNSQESVTEQDSKDSTYSLSSTLTLSKADYEKHKVYACEVTHQGLSSPVTKSFNRGEC
96.5%	96.8%	109%	110%	GpH7-A5/GpH7-B3 variant Y300_03V/GpL16-k0 (antibody, human IgG1, kappa, He Ab: heterodimerized IgG1, one H chain mutated) heavy 1: not shown heavy 2: not shown light: DIVMTQSPLSLPVTPGEPASISCQASESLVHSNRNTYLHWYLQKPGQSPQLLIYKVSNRFSGVPDRFSGSGSGTDFTLKISRVEAEDVGVYYCSQNTHVPPTFGQGTKVEIERTVAAPSVFIFPPSDEQLKSGTASVVCLLNNFYPREAKVQWKVDNALQSGNSQESVTEQDSKDSTYSLSSTLTLSKADYEKHKVYACEVTHQGLSSPVTKSFNRGEC
90.5%	92.9%	104%	106%	GpH7-A5/GpH7-B3 variant Y300_02A/GpL16-k0 (antibody, human IgG1, kappa, He Ab: heterodimerized IgG1, one H chain mutated) heavy 1: not shown heavy 2: not shown light: DIVMTQSPLSLPVTPGEPASISCQASESLVHSNRNTYLHWYLQKPGQSPQLLIYKVSNRFSGVPDRFSGSGSGTDFTLKISRVEAEDVGVYYCSQNTHVPPTFGQGTKVEIERTVAAPSVFIFPPSDEQLKSGTASVVCLLNNFYPREAKVQWKVDNALQSGNSQESVTEQDSKDSTYSLSSTLTLSKADYEKHKVYACEVTHQGLSSPVTKSFNRGEC
96.1%	96.9%	120%	107%	GpH7-A5/GpH7-B3 variant Y300_08L/GpL16-k0 (antibody, human IgG1, kappa, He Ab: heterodimerized IgG1, one H chain mutated) heavy 1: not shown heavy 2: not shown light: DIVMTQSPLSLPVTPGEPASISCQASESLVHSNRNTYLHWYLQKPGQSPQLLIYKVSNRFSGVPDRFSGSGSGTDFTLKISRVEAEDVGVYYCSQNTHVPPTFGQGTKVEIERTVAAPSVFIFPPSDEQLKSGTASVVCLLNNFYPREAKVQWKVDNALQSGNSQESVTEQDSKDSTYSLSSTLTLSKADYEKHKVYACEVTHQGLSSPVTKSFNRGEC
97.4%	90.9%	120%	102%	GpH7-A5/GpH7-B3 variant Y300_07I/GpL16-k0 (antibody, human IgG1, kappa, He Ab: heterodimerized IgG1, one H chain mutated) heavy 1: not shown heavy 2: not shown light: DIVMTQSPLSLPVTPGEPASISCQASESLVHSNRNTYLHWYLQKPGQSPQLLIYKVSNRFSGVPDRFSGSGSGTDFTLKISRVEAEDVGVYYCSQNTHVPPTFGQGTKVEIERTVAAPSVFIFPPSDEQLKSGTASVVCLLNNFYPREAKVQWKVDNALQSGNSQESVTEQDSKDSTYSLSSTLTLSKADYEKHKVYACEVTHQGLSSPVTKSFNRGEC
122%	105%	101%	106%	GpH7-A5/GpH7-B3 variant Y300_09D/GpL16-k0 (antibody, human IgG1, kappa, He Ab: heterodimerized IgG1, one H chain mutated) heavy 1: not shown heavy 2: not shown light: DIVMTQSPLSLPVTPGEPASISCQASESLVHSNRNTYLHWYLQKPGQSPQLLIYKVSNRFSGVPDRFSGSGSGTDFTLKISRVEAEDVGVYYCSQNTHVPPTFGQGTKVEIERTVAAPSVFIFPPSDEQLKSGTASVVCLLNNFYPREAKVQWKVDNALQSGNSQESVTEQDSKDSTYSLSSTLTLSKADYEKHKVYACEVTHQGLSSPVTKSFNRGEC
110%	105%	116%	106%	GpH7-A5/GpH7-B3 variant Y300_06M/GpL16-k0 (antibody, human IgG1, kappa, He Ab: heterodimerized IgG1, one H chain mutated) heavy 1: not shown heavy 2: not shown light: DIVMTQSPLSLPVTPGEPASISCQASESLVHSNRNTYLHWYLQKPGQSPQLLIYKVSNRFSGVPDRFSGSGSGTDFTLKISRVEAEDVGVYYCSQNTHVPPTFGQGTKVEIERTVAAPSVFIFPPSDEQLKSGTASVVCLLNNFYPREAKVQWKVDNALQSGNSQESVTEQDSKDSTYSLSSTLTLSKADYEKHKVYACEVTHQGLSSPVTKSFNRGEC
